Patent CN117677637A (PETEMEDI LTD, dated 2024)

Assays:
[1] = target: T1, 犬CD20 (canine CD20, B淋巴细胞抗原CD20, full length, wild type) (canine (dog), UniProt Q3C2E2 1-297); experiment: flow cytometry on MDCK cells expressing wild-type canine CD20 (positive control of epitope mapping)
T1 construct: Stably expressed from full-length cDNA on MDCK II (or HEK293) cells for flow cytometry and ADCC; naturally expressed on CLBL-1 canine lymphoma cells in the CDC assay; also called cCD20; MS4A1
T1 chain: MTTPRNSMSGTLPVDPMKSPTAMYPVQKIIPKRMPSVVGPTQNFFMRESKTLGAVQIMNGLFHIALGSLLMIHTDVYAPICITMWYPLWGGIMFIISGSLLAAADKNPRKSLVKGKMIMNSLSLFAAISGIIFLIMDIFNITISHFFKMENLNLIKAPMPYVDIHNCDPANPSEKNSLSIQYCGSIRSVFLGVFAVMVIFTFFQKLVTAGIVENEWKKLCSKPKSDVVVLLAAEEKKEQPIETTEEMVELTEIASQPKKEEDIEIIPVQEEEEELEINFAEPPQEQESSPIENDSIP

[2] = target: T1, 犬CD20 (canine CD20, B淋巴细胞抗原CD20, full …); experiment: flow cytometry on cells expressing canine CD20, against PMX003 (Fig 3B); slight decrease
[3] = target: T1, 犬CD20 (canine CD20, B淋巴细胞抗原CD20, full …); experiment: flow cytometry on cells expressing canine CD20, against PMX003 (Fig 3B); unchanged
[4] = target: T1, 犬CD20 (canine CD20, B淋巴细胞抗原CD20, full …); experiment: flow cytometry, 10 ug/ml antibody on MDCK II cells expressing canine CD20 (Fig 3A); equal to 4E1-7

B1: PMX003 (antibody, V domains shown)
VH: EVQLVESGGDLVKPGGSLRLSCVASGITFSRYHMSWVRQAPGKGLQWVAYINSGGSSTSYPDAVKGRFTISRDNAKNTLYLQMDSLRAEDTALYYCTTFDYWGQGTLVTVSS
VL: SYVLTQLPSKNVTLKQPAHITCGGDNIGSKSVHWYQQKLGQAPVLIIYYDSRRPTGIPERFSGANSGNTATLTISGALAEDEADYYCQVWDSSANVFGGGTHLTVL
notes: Fully canine mAb; Tested in native form and in an a-fucosylated form (made in Fut8 knockout CHO cells) in CDC/ADCC; also called PMX003 mAb
Question: Does B1 bind [1]?
Answer: binds

B2: PMX006 (antibody, V domains shown)
VH: EVQLVESGGDLVKPGGSLRLSCVASGITFSRYHMSWVRQAPGKGLQWVAYINSGGSSTSYPDAVKGRFTISRDNAKNTLYLQMDSLRAEDTALYYCTTFDYWGQGTLVTVSS
VL: SYVLTQLPSKQVTLKQPAHITCGGDNIGSKSVHWYQQKLGQAPVLIIYYDSRRPTGIPERFSGANSGNTATLTISGALAEDEADYYCQVWDSSANVFGGGTHLTVL
notes: PMX003 heavy chain; Constant regions not restated (PMX003: dog IGGB / dog IGLC5); also called PMX006 mAb; QVT突变体
Question: Does B2 bind [2]?
Answer: binds

B3: PMX007 (antibody, V domains shown)
VH: EVQLVESGGDLVKPGGSLRLSCVASGITFSRYHMSWVRQAPGKGLQWVAYINSGGSSTSYPDAVKGRFTISRDNAKNTLYLQMDSLRAEDTALYYCTTFDYWGQGTLVTVSS
VL: SYVLTQLPSKAVTLKQPAHITCGGDNIGSKSVHWYQQKLGQAPVLIIYYDSRRPTGIPERFSGANSGNTATLTISGALAEDEADYYCQVWDSSANVFGGGTHLTVL
notes: PMX003 heavy chain; Constant regions not restated (PMX003: dog IGGB / dog IGLC5); also called PMX007 mAb; AVT突变体
Question: Does B3 bind [2]?
Answer: binds

B4: PMX008 (antibody, V domains shown)
VH: EVQLVESGGDLVKPGGSLRLSCVASGITFSRYHMSWVRQAPGKGLQWVAYINSGGSSTSYPDAVKGRFTISRDNAKNTLYLQMDSLRAEDTALYYCTTFDYWGQGTLVTVSS
VL: SYVLTQLPSKEVTLKQPAHITCGGDNIGSKSVHWYQQKLGQAPVLIIYYDSRRPTGIPERFSGANSGNTATLTISGALAEDEADYYCQVWDSSANVFGGGTHLTVL
notes: PMX003 heavy chain; Constant regions not restated (PMX003: dog IGGB / dog IGLC5); also called PMX008 mAb; EVT
Question: Does B4 bind [3]?
Answer: binds

B5: PMX009 (antibody, V domains shown)
VH: EVQLVESGGDLVKPGGSLRLSCVASGITFSRYHMSWVRQAPGKGLQWVAYINSGGSSTSYPDAVKGRFTISRDNAKNTLYLQMDSLRAEDTALYYCTTFDYWGQGTLVTVSS
VL: SYVLTQLPSKNVALKQPAHITCGGDNIGSKSVHWYQQKLGQAPVLIIYYDSRRPTGIPERFSGANSGNTATLTISGALAEDEADYYCQVWDSSANVFGGGTHLTVL
notes: PMX003 heavy chain; Constant regions not restated (PMX003: dog IGGB / dog IGLC5); also called PMX009 mAb; NVA
Question: Does B5 bind [3]?
Answer: binds

B6: PMX115 (antibody, V domains shown)
VH: EMQLVESGGALVKPGGSLRLSCVASGFTFRRYHMSWVRQAPGQGLQWVAYIDSDGSPTSYGDSVKGRFTISRDNAKNTLFLQMNSLRVDDTAVYYCTTLDYWGRGTLVTVSS
VL: SYVLTQVPSKSVTLKQPAHITCGGDNIGGKSVHWYQQKLGQAPLLIIYYDTRRPTGIPERFSGANSGNTATLTISRALAEDEADYYCQVWDSSGNVFGGGTHLTVI
notes: also called PMX115 mAb
Question: Does B6 bind [1]?
Answer: binds

B7: PMX002 (antibody, V domains shown)
VH: EVQLVESGGDLVKPGGSLRLSCVASGIIFSNYHMSWVRQVPGKGLQWVAYINSGGSTINYADGVKGRFTISRDNAKNSLYLQMNSLRGEDTAVYYCTTYDSWGQGTLVTVSS
VL: SYVLTQLPSKNVTLKQPAHITCGGDNIGSKSVHWYQQKLGQAPVLIIYYDSSRPTGIPERFSGANSGNTATLTISGALAEDEADYYCQVWDSSVNVFGGGTHLTVL
notes: Fully canine mAb; also called PMX002 mAb
Question: Does B7 bind [4]?
Answer: binds
